# From paper PMC2914225, “Fusion of GFP to the M.EcoKI DNA methyltransferase produces a new probe of Type I DNA restriction and modification enzymes” (Biochemical and Biophysical Research Communications, 2010)
# B1: Dylight549-labelled ocr E117C mutant protein (natural protein, phage T7, UniProt P03775 1-117, looked up)
# chain: MAMSNMTYNNVFDHAYEMLKENIRYDDIRDTDDLHDAIHMAADNAVPHYYADIFSVMASEGIDLEFEDSGLMPDTKDVIRILQARIYEQLTIDLWEDAEDLLNEYLEEVEEYEEDEC
# modifications: Dylight549 maleimide on the introduced cysteine at 117 (labelling level 86.3%)
# notes: gene 0.3 protein, ocr, from phage T7; one cysteine and so one acceptor label in each subunit; also called E117C ocr; E117E (as printed once); source: site directed mutagenesis and protein purification as described previously [17]
# B2: 21TH21B (dsDNA)
# DNA 1: GCCTAACCACGTGGTGCGTAC
# DNA 2: GTACGCACCACGTGGTTAGGC
# Columns and labels:
# [1] = biological target: GFP-MTase (M.EcoKI DNA methyltransferase, M2S1 form, with enhanced green fluorescent protein fused to the C-terminus of HsdS) (E. coli) (UniProt P08957); test: SEC; labelled mutant ocr proteins with GFP-MTase, size exclusion chromatography as previously described [14]; 20 or 25 °C, 20 mM Tris-HCl pH 8.0, 6 mM MgCl2, 7 mM 2-mercaptoethanol
# [2] = biological target: T1, GFP-MTase (M.EcoKI DNA methyltransferase, M2S1 form, with enhanced green fluorescent protein fused to the … (E. coli, UniProt P08957 1-529; P05719 1-464); test: as above; details: both partners purified
# T1 construct: HsdM modification (MTase) subunit of the Type I R/M enzyme EcoKI, E. coli; its C-terminus is fused to the N-terminus of EGFP; Construct pJFMSEGFP derives from pJFMS [18] and pEGFP-N1; EGFP serves as the FRET donor; also called M.EcoKI fused to GFP; fusion protein; not shown: EGFP, C-terminal, kept; copies: 2 + 1
# T1 sequence (looked up) 1: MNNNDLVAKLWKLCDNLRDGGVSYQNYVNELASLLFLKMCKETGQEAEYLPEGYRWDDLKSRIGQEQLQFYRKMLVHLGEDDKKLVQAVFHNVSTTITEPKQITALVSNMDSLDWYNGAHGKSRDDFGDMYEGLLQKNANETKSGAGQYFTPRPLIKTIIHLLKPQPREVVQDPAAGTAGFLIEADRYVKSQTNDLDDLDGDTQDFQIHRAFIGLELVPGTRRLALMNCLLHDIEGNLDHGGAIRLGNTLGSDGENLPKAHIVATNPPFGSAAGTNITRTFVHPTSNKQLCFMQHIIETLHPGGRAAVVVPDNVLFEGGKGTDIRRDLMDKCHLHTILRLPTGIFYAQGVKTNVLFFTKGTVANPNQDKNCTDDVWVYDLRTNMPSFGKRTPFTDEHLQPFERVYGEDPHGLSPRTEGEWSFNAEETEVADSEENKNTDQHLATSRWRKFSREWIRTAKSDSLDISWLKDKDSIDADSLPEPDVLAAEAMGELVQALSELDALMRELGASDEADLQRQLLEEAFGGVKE
# T1 sequence (looked up) 2: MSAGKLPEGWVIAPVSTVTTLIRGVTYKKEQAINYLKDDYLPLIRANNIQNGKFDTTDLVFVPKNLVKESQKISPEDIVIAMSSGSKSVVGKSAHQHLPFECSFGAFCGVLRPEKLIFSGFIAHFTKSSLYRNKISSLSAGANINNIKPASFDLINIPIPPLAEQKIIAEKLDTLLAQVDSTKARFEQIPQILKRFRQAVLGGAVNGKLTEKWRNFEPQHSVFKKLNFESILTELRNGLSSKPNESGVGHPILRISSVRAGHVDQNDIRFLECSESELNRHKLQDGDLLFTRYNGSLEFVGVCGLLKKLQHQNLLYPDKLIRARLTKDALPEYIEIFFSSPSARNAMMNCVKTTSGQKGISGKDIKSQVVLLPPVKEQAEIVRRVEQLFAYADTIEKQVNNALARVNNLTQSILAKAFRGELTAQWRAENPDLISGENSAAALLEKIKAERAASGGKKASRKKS
# [3] = biological target: T2, GFP-MTase (M.EcoKI M2S1 with EGFP fused to C-terminus of HsdS) (Escherichia coli? (EcoKI; expressed in …, UniProt P08957;P05719 1-529;1-464); test: FRET continuous variation titration; no NaCl; 6 mM Mg2+; 1:1 complex; 20 mM Tris-HCl pH 8.0, 6 mM MgCl2, 7 mM 2-mercaptoethanol, NaCl 0-100 mM (0 for the Kd), 20 or 25 °C; details: protein: recombinant; tags: EGFP-His6 at C-terminus of HsdS; chain copies: 2;1; label: 5'-HEX on top strand; blunt
# T2 sequence 1: T1 sequence (looked up) 1
# T2 sequence 2: T1 sequence (looked up) 2
Molecule,stoichiometry N [1],other results
Dylight549-labelled ocr E20C mutant protein (from UniProt P03775 1-117) (natural protein),1,
Dylight549-labelled ocr S68C mutant protein (from UniProt P03775 1-117) (natural protein),1,
B1,,stoichiometry N [2]: 1
B2,,Kd [3]: 19 ± 7 nM
